Biological target: the molecule itself
Assay: SEC

B1: 6xHis-VP40 (recombinant full-length EBOV VP40, dimer) (natural protein)
chain: MRRVILPTAPPEYMEAIYPVRSNSTIARGGNSNTGFLTPESVNGDTPSNPLRPIADDTIDHASHTPGSVSSAFILEAMVNVISGPKVLMKQIPIWLPLGVADQKTYSFDSTTAAIMLASYTITHFGKATNPLVRVNRLGPGIPDHPLRLLRIGNQAFLQEFVLPPVQLPQYFTFDLTALKLITQPLPAATWTDDTPTGSNGALRPGISFHPKLRPILLPNKSGKKGNSADLTSPEKIQAIMTSLQDFKIVPIDPTKNIMGIEVPETLVHKLTGKKVTSKNGQPIIPVLLPKYIGLDPVAPGDLTMVITQDCDTCHSPASLPAVIEK
binding result: binds

— paper PMC11565396 (Journal of Lipid Research, 2024)
